According to publication PMC4947182:

B1: JUNO (folate receptor 4, IZUMO1R): N185D (protein)
parent chain: MAQWWQILLGLWAVLPTLAGDKLLSVCMNSKRHKQEPGPEDELYQECRPWEDNACCTRSTSWEAHLEEPLLFNFSMMHCGLLTPACRKHFIQAICFHECSPNLGPWIQPVVPNGQEEQRVWGVPLCQEDCEDWWRACHSSLTCKSNWLHGWDWSEEKKHCPAHEPCLPFSYHFPTPDDLCEKIWNNTFKASPERRNSGRCLQKWFEPTLSNPNVEVALHFAGSALAPQLSYTLPAFSLCLLFHP
B2: JUNO (folate receptor 4, IZUMO1R): N73D (protein)
parent chain: B1 parent chain

Key:
[1] = soluble expression of ectodomain in Sf9 cells; details: glycan lost; control: WT JUNO ectodomain
[2] = mRNA complementation of Juno KO eggs, fertilization rate; details: glycan lost; control: Juno KO eggs injected with WT mJuno mRNA

Row | Protein | expression_or_secretion [1] | other: sperm-egg fusion, other: percent eggs fertilized [2]
1 | B1 | abolishes | 
2 | B2 | no change | no change, 94.7 vs 93.5
